{"source": "patent US20150322149A1", "about": "(Hoffmann-La Roche, published 2015)", "key": {"[1]": {"molecular_target": "T1, recombinant mouse transferrin receptor (mTfR), extracellular domain (mouse, UniProt Q62351 89-763)", "T1 construct": "extracellular domain; Bought protein; also called murine Transferrin receptor 1", "T1 sequence (Q62351 89-763)": "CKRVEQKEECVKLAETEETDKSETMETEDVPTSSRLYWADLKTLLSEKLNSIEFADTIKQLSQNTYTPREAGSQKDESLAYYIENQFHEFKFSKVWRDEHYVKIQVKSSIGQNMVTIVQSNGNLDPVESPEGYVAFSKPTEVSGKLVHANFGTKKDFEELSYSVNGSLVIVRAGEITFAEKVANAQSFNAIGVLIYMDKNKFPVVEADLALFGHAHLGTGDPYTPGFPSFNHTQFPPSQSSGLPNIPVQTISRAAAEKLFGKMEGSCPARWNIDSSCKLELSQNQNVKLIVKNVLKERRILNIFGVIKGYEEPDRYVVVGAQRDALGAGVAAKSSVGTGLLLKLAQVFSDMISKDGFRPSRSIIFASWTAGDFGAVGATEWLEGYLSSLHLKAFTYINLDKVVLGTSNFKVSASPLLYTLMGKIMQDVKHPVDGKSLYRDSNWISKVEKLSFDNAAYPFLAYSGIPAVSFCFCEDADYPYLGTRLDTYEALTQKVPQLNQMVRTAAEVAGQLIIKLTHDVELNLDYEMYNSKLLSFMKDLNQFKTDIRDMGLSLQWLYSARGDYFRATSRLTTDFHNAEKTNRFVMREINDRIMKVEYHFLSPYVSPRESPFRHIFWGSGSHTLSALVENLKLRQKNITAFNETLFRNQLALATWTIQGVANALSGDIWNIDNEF", "assay": "indirect ELISA on coated recombinant mTfR extracellular domain", "procedure": "Binding of mAb31-8D3 constructs to mouse transferrin receptor (mTfR) was assessed by indirect ELISA. To this end, recombinant mTfR (extracellular domain; Sino Biological) was coated to Maxisorb microtiter plate (Nunc) at 1 μg/mL in PBS at 4° C. overnight. After blocking in 1% Cro-tein-C/PBS (blocking buffer; Roche) for 1 h at RT and 4 washes with 0.1% Tween-20/PBS (wash buffer), mAb31-8D3 constructs were added to the wells at concentrations between 0.01 and 150 nM in blocking buffer and incubated for 1 h at RT. After 4 wash steps, constructs were detected by addition of anti-human-IgG-HRP (Jackson Immunoresearch) at 1:10,000 dilution in blocking buffer […], followed by 6 washes and incubation in TMB (Sigma). Absorbance was read out at 450 nm after stopping color development with 1 N HCl."}, "[2]": {"molecular_target": "T2, Abeta(1-40), fibrillar, immobilized (UniProt P05067 672-711)", "T2 construct": "domain: Abeta(1-40); Numbers 1-40 count on the Abeta peptide, not on the APP precursor; also called Abeta fibrils; fibrillar Abeta", "T2 sequence (P05067 672-711 limits assumed)": "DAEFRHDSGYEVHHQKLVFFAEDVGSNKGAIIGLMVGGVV", "assay": "ELISA on coated fibrillar Abeta(1-40)", "procedure": "Functionality of mAb31 was confirmed by ELISA. Briefly, Abeta(1-40) was coated at 7 μg/mL in PBS onto Maxisorp plates for 3 days at 37° C. to produce fibrillar Abeta, then dried for 3 h at RT. The plate was blocked with 1% Crotein C and 0.1% RSA in PBS (blocking buffer) for 1 h at RT, then washed once with wash buffer. mAb31 constructs were added at concentrations up to 100 nM in blocking buffer and incubated at 4° C. overnight. After 4 wash steps, constructs were detected as indicated above."}}, "data": [{"binder": "mAb31 (human monoclonal antibody recognizing Abeta; INN Gantenerumab) (antibody, V domains shown, also called anti-Aβ monoclonal antibody mAb31) VH: QVELVESGGGLVQPGGSLRLSCAASGFTFSSYAMSWVRQAPGKGLEWVSAINASGTRTYYADSVKGRFTISRDNSKNTLYLQMNSLRAEDTAVYYCARGKGNTHKPYGYVRYFDVWGQGTLVTVSS VL: DIVLTQSPATLSLSPGERATLSCRASQSVSSSYLAWYQQKPGQAPRLLIYGASSRATGVPARFSGSGSGTDFTLTISSLEPEDFATYYCLQIYNMPITFGQGTKVEIKR", "values": [{"measurement": "binding result", "setting": "[1]", "result": "no binding (tested: 0.01 to 150 nM)"}, {"measurement": "binding result", "setting": "[2]", "result": "binds"}]}]}
